Substitutions are numbered along the chain they refer to. Values belong to the binder of their own block, whether it stands above or below them.
Tests used:
[1] = biological target: T1, human TREM2 (triggering receptor expressed on myeloid cells 2) (human) (UniProt Q9NZC2); test: 2nd screen, 10 nM Ab
T1 sequence (looked up): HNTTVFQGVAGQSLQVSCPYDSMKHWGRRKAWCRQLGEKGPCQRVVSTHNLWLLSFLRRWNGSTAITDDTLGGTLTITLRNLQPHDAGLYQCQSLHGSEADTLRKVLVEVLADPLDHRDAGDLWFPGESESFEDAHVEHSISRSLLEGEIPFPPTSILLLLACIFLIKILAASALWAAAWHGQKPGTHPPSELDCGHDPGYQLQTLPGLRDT

[2] = biological target: T1, human TREM2 (triggering receptor expressed on myeloid cells 2) (human); test: 1st screen, 10 nM Ab
[3] = biological target: T1, human TREM2 (triggering receptor expressed on myeloid cells 2) (human); test: 2nd screen, 2 nM Ab
[4] = biological target: T1, human TREM2 (triggering receptor expressed on myeloid cells 2) (human); test: 1st screen, 110 nM Ab
[5] = biological target: T1, human TREM2 (triggering receptor expressed on myeloid cells 2) (human); test: 2nd screen, 100 nM Ab

B3: 6E7 antibody affinity modulation variant V6 (antibody, V domains shown)
VH: EVQLVQSGAEVKKPGESLKISCKGSGYSFTSMWIAWVRQMPGKGLEWMGIIYPGDSDTRYSPSFQGQVTISADKSISTAYLQWSSLKASDTAMYFCARQRTFYYDSSDYFDYWGQGTLVTVSS
VL: DIQMTQSPSSVSASVGDRVTITCRASQGISSWLAWYQQKPGKAPKLLIYAASSLQNGVPSRFSGSGSGTDFTLTISSLQPEDFATYFCQQADSFPRTFGQGTKLEIK
Binding Signal (fold over 6E7 parental antibody) [4]: 0.2 fold
Binding Signal (fold over 6E7 parental antibody) [5]: 0.56 fold

B4: 6E7 antibody affinity modulation variant V20 (antibody, V domains shown)
VH: B3 VH with M32Y, I50R
VL: B3 VL
Binding Signal (fold over 6E7 parental antibody) [4]: 0.18 fold
Binding Signal (fold over 6E7 parental antibody) [5]: 0.52 fold

B6: 6E7 antibody affinity modulation variant V9 (antibody, V domains shown)
VH: B3 VH with M32Y, T101G
VL: B3 VL
Binding Signal (fold over 6E7 parental antibody) [4]: 0.67 fold
Binding Signal (fold over 6E7 parental antibody) [5]: 0.54 fold

B7: 6E7 antibody affinity modulation variant V11 (antibody, V domains shown)
VH: B3 VH with M32Y
VL: B3 VL with D92A
Binding Signal (fold over 6E7 parental antibody) [4]: 0.79 fold
Binding Signal (fold over 6E7 parental antibody) [5]: 0.42 fold

B10: 6E7 antibody affinity modulation variant V21 (antibody, V domains shown)
VH: B3 VH with M32Y, Y109F
VL: B3 VL
Binding Signal (fold over 6E7 parental antibody) [4]: 0.76 fold
Binding Signal (fold over 6E7 parental antibody) [5]: 0.68 fold

B12: 6E7 antibody affinity modulation variant V22 (antibody, V domains shown)
VH: B3 VH with M32Y
VL: B3 VL with A50R
Binding Signal (fold over 6E7 parental antibody) [4]: 0.3 fold
Binding Signal (fold over 6E7 parental antibody) [5]: 0.71 fold

B17: 6E7 antibody affinity modulation variant V8 (antibody, V domains shown)
VH: B3 VH with M32Y, R59K
VL: B3 VL
Binding Signal (fold over 6E7 parental antibody) [4]: 0.28 fold
Binding Signal (fold over 6E7 parental antibody) [5]: 0.77 fold

B20: 6E7 antibody affinity modulation variant V10 (antibody, V domains shown)
VH: B3 VH with M32Y
VL: B3 VL with A50S
Binding Signal (fold over 6E7 parental antibody) [4]: 0.76 fold
Binding Signal (fold over 6E7 parental antibody) [5]: 0.7 fold

B21: 6E7 antibody affinity modulation variant V18 (antibody, V domains shown)
VH: B3 VH with M32Y, W33H
VL: B3 VL
Binding Signal (fold over 6E7 parental antibody) [4]: 0.17 fold
Binding Signal (fold over 6E7 parental antibody) [5]: 0.42 fold

B24: 6E7 antibody affinity modulation variant V19 (antibody, V domains shown)
VH: B3 VH with M32S
VL: B3 VL
Binding Signal (fold over 6E7 parental antibody) [4]: 0.59 fold
Binding Signal (fold over 6E7 parental antibody) [5]: 0.48 fold

B26: 6E7 antibody affinity modulation variant V7 (antibody, V domains shown)
VH: B3 VH with M32E
VL: B3 VL
Binding Signal (fold over 6E7 parental antibody) [4]: 0.11 fold
Binding Signal (fold over 6E7 parental antibody) [5]: 0.32 fold

More lines, now with the values ahead:

Binding Signal (fold over 6E7 parental antibody) [1]: 3.44 fold
Binding Signal (fold over 6E7 parental antibody) [2]: 3.38 fold
Binding Signal (fold over 6E7 parental antibody) [3]: 4 fold
B1: 6E7 antibody affinity modulation variant V36 (antibody, V domains shown)
VH: B3 VH with M32Y, I34L, Q99S
VL: B3 VL with L54R, F94Y

Binding Signal (fold over 6E7 parental antibody) [1]: 4.36 fold
Binding Signal (fold over 6E7 parental antibody) [2]: 4.34 fold
Binding Signal (fold over 6E7 parental antibody) [3]: 3.44 fold
B2: 6E7 antibody affinity modulation variant V38 (antibody, V domains shown)
VH: B3 VH with T30G, M32Y, T58V
VL: B3 VL with L54R, F94H

Binding Signal (fold over 6E7 parental antibody) [4]: 0.33 fold
Binding Signal (fold over 6E7 parental antibody) [5]: 0.36 fold
B5: 6E7 antibody affinity modulation variant V90 (antibody, V domains shown)
VH: B3 VH with M32E
VL: B3 VL with S31R

Binding Signal (fold over 6E7 parental antibody) [4]: 0.35 fold
Binding Signal (fold over 6E7 parental antibody) [5]: 1.05 fold
B8: 6E7 antibody affinity modulation variant V93 (antibody, V domains shown)
VH: B3 VH with M32Y
VL: B3 VL with S31G

Binding Signal (fold over 6E7 parental antibody) [4]: 0.31 fold
Binding Signal (fold over 6E7 parental antibody) [5]: 0.87 fold
B9: 6E7 antibody affinity modulation variant V94 (antibody, V domains shown)
VH: B3 VH with M32Y
VL: B3 VL with S52A

Binding Signal (fold over 6E7 parental antibody) [4]: 0.61 fold
Binding Signal (fold over 6E7 parental antibody) [5]: 0.73 fold
B11: 6E7 antibody affinity modulation variant V31 (antibody, V domains shown)
VH: B3 VH with M32Y, D57E
VL: B3 VL

Binding Signal (fold over 6E7 parental antibody) [1]: 3.49 fold
Binding Signal (fold over 6E7 parental antibody) [2]: 3.46 fold
Binding Signal (fold over 6E7 parental antibody) [3]: 3.69 fold
B13: 6E7 antibody affinity modulation variant V37 (antibody, V domains shown)
VH: B3 VH with F29H, M32Y, Q65A, Q99S
VL: B3 VL with N56W, F94Y

Binding Signal (fold over 6E7 parental antibody) [4]: 0.82 fold
Binding Signal (fold over 6E7 parental antibody) [5]: 0.89 fold
B14: 6E7 antibody affinity modulation variant V32 (antibody, V domains shown)
VH: B3 VH with M32Y, P62N
VL: B3 VL

Binding Signal (fold over 6E7 parental antibody) [4]: 0.79 fold
Binding Signal (fold over 6E7 parental antibody) [5]: 0.72 fold
B15: 6E7 antibody affinity modulation variant V30 (antibody, V domains shown)
VH: B3 VH with Y27S, M32Y
VL: B3 VL

Binding Signal (fold over 6E7 parental antibody) [4]: 0.25 fold
Binding Signal (fold over 6E7 parental antibody) [5]: 0.61 fold
B16: 6E7 antibody affinity modulation variant V91 (antibody, V domains shown)
VH: B3 VH with M32Y, G54D
VL: B3 VL

Binding Signal (fold over 6E7 parental antibody) [1]: 5.81 fold
Binding Signal (fold over 6E7 parental antibody) [2]: 6.15 fold
Binding Signal (fold over 6E7 parental antibody) [3]: 5.11 fold
B18: 6E7 antibody affinity modulation variant V39 (antibody, V domains shown)
VH: B3 VH with T30G, M32Y, S61N, Q99G
VL: B3 VL with Q55V, F94S

Binding Signal (fold over 6E7 parental antibody) [1]: 4.16 fold
Binding Signal (fold over 6E7 parental antibody) [2]: 4.48 fold
Binding Signal (fold over 6E7 parental antibody) [3]: 3.41 fold
B19: 6E7 antibody affinity modulation variant V40 (antibody, V domains shown)
VH: B3 VH with T30G, M32Y, T58V, F110S
VL: B3 VL with N56L, S93R

Binding Signal (fold over 6E7 parental antibody) [4]: 0.22 fold
Binding Signal (fold over 6E7 parental antibody) [5]: 0.65 fold
B22: 6E7 antibody affinity modulation variant V92 (antibody, V domains shown)
VH: B3 VH with M32Y, Y103H
VL: B3 VL

Binding Signal (fold over 6E7 parental antibody) [4]: 0.4 fold
Binding Signal (fold over 6E7 parental antibody) [5]: 0.4 fold
B23: 6E7 antibody affinity modulation variant V23 (antibody, V domains shown)
VH: B3 VH with M32Y
VL: B3 VL with R96L

Binding Signal (fold over 6E7 parental antibody) [4]: 0.23 fold
Binding Signal (fold over 6E7 parental antibody) [5]: 0.34 fold
B25: 6E7 antibody affinity modulation variant V33 (antibody, V domains shown)
VH: B3 VH with M32Y, Y104G
VL: B3 VL

— patent US20250019437A1
